PMC6155276

Molecular target: Mycobacterium tuberculosis type-I fatty acid synthase (FAS-I) (Mycobacterium tuberculosis)
Assay: […] (100 mM potassium phosphate pH 7.2, 150 mM KCl, 1 mM TCEP, 1 mM EDTA) […]

Mycobacterium tuberculosis type-I fatty acid synthase (FAS-I) (enzyme)
stoichiometry N: 6
